Measurements published in the nanobody polyreactivity screen of Harvey et al. (2022).

Test: yeast display, Sf9 membrane polyspecificity reagent, FACS + sequencing; frameworks hold sequencing errors
Outline: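 Nanobodies from a synthetic yeast display library (Saccharomyces cerevisiae BJ5465), induced 36–48 hours with galactose, were stained 1 hour at 4 °C with 10% biotinylated, detergent-solubilized Sf9 membrane reagent, enriched on streptavidin microbeads, then FACS-sorted. Anti-HA (expression) and streptavidin (reagent binding) fluorescence set low and high (top ~1%) gates. Polyreactivity labels come from the gate of origin. Genes were colony-PCR amplified, MiSeq 2 × 250 sequenced and filtered by CDR length.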

Sequence	polyreactivity (PSR sort gate)
QVQLVESGGGLVHAGGSLRLSCAASGSIFQYNAMGWYRQAPGKERELVATISSGGSTNYADSVKGRFTISRDNAKNTVYLQMNSLKPEDTAVYYCAAVVIVFYYAPNYWGDIEYGYWGQGTQVTVSS	low polyreactivity
QVQLVESGGGLVHAGGSLRLSCAASGSIFSIYAMGWYRQAPGTERELVAAITKSGGSTYYADSVKGRFTISRDNAKNTVYLQMNSLKPEDTAVYYCAAEPQHYVGYYYWGQGNQVTVSS	high polyreactivity
QVQLVESGGGLVHAGGSLRLSCAASGSILKYYAMGWYRQAPGKERELVAAITSRGGSTYYADSVKGRFTISRDNAKNTVYLQMNSLKPEDTAVYYCNRVYLGYFRYDYWGQGTQVTVSS	high polyreactivity
QVQLVESGGGLVHAGGSLRLSCAASGSTFGDNAMRLYRQAPGKERELVAVISTAGSTYYADSVKGRFTISRDNAKNTVYLQMNSLKPEDTAVYYCAAAYYVWLYGFWYRRYDYWGQGTQVTVSS	low polyreactivity
QVQLVESGGGLVHAGGSLRLSCAASGSTFRSYAMGWYRQAPGKERELVARISYRTGSTYYADSVKGRFTISRDYAKNTVYLQMNSLKPEDTAVYYCATRGSYVGGLYDYWGQGTQVTVSS	high polyreactivity
QVQLVESGGGLVHAGGSLRLSCAASGSTFYGYTMGWYRQAPGKERELVAVITSGGSTYYADSVKGRFTISRDNAKNTVYLQMNSLKPEDTAVYYCAKRYGYPAYGRPWRIGRTYDYWGQGTQVTVSS	low polyreactivity
QVQLVESGGGLVHAGGSLRLSCAASGSTLGYNVMGWYRQAPGKERELVAAISGDGSTNYADSVKGRFTISRDNAKNTVYLQMNSLKREDTEVYYCNAPFWGYRTSFSYPVVQRFDYWGQGTHVTVSS	low polyreactivity
QVQLVESGGGLVHAGGSLRLSCAASGSTLQVYAMGWYREAPGIERELVAVITFSGGRTYYADSVKGRFTISRDTAKNTVYLQMNSLKPEDTADYYPAARYYWGQGTQVTVSS	high polyreactivity
QVQLVESGGGLVHAGGSLRLSCAASGSTLSYAMGWYRQAPGKERELVAAISRSGGSTYYADSVKGRFTISRDNAKNTVYLQMNSLKPEDTAVYYCAADPYPSYANGGYYWGQGTQVTVSS	high polyreactivity
QVQLVESGGGLVHAGGSLRLSCAASGSTYYGNAMGWYIQAPRKERELVAAINRGGSTYYADSVKGRFTISRDNAKNTVYLQMKSLKPEDTAVYYCAADYEYLPKTRDGYYWGQGTQVTVSS	low polyreactivity
QVQLVESGGGLVHAGGSLRLSCAASGYTFSRNAMGWYRQAPGKERELVAAITGSGGSTYYADSVKGRFTISRDNAKNTVYLQMNSLKPEDTAVYYCATEVKRGYVGFDYWGQGTQVTVSS	low polyreactivity
QVQLVESGGGLVHAGGSLRLSCAAYGFIFYDYVMGWYRQAPGKERELVAAITGSGGGTYYADSVKGRFTISRDNAKNTVYLQMNSLKPDATAVYYCAADFISVYGYEYYYWGQVTQVTVSS	high polyreactivity
QVQLVESGGGLVHAGGSLRLSCAAYGIIFQYYTMGWYRQAPGKERELVASITYDGDSTYYADSVKGRFTISLDNAKNTVYLQMNSLKPEDTALYYCAAVANGFWTYEYWGQGTQVTVSS	low polyreactivity
QVQLVESGGGLVHAGGSLRLSCAAYGRTYGTNAMGWYRQAPVKERELVAAIRRGGSRTYYADSVKGRFTISRDYAKNTVYLPMNSLKPEDTAVYYCAAKLRAYVDPFEYWGQGTQVTVSS	low polyreactivity
QVQLVESGGGLVHAGGSLRLSCADSGRIFYANALGWSRQSPGRERELVAAISSGGSTYYADSVKGRFTSSRDNAKNTVYLQMNSLKPEDTAVYYCAVYTLKKVRPEYDYWGQGTQVTVSS	low polyreactivity
QVQLVESGGGLVHAGGSLRLSCAPSGSTFFTNAMGWYRQAPGKERELVAAITINDGSTFYADSVKGRFTISRDNAKNTVYLQMNSLKQEDTAVYYCNADGVDLYDYWGQGTQVTVSS	low polyreactivity

Sequence	polyreactivity (PSR sort gate)
QVQLVESGGGLVHAGGSLRLSCASSGSTFFTNAMGWYRQAPGKERELVAAITINDGSTFYADSVKGRFTISRDNAKNTVYLQMNSLNPEDTAVYYCNADGVDLYDYWGQCTQVTVSS	low polyreactivity
QVQLVESGGGLVHAGGSLRLSSAASGRTFLSYTMGWYRQAPGKERELVAVISRSGGRTYYADSVKGRFTISRDNATNTVYLQMNSLKPEDTADYYCAADTYRGYDFDYWGQGSQVTVSS	high polyreactivity
QVQLVESGGGLVHAGGSLRLSSAASGSIYYYAMGWYRQAPGKERELVAAITWRGGRTYYADSVKGRFTISRDNAKNNVYLQMNILKPEDTAVYYCNDVAPGKYNHWGQGTQVNVSS	high polyreactivity
QVQLVESGGGLVHAGGSLRLTCAASGLTFAYYAMGWYRQAPGKERELVAAISWNGGRTYNADSVKGRFTISRDNAKNTVYLQMNSLKPEDTAVYYCAAQVTSSFYWGQGTQVTVSS	high polyreactivity
QVQLVESGGGLVHAGGSLRLTCAASGRTYRNGMGWYRQAPGKERELVAAISVSGTRTYYADSVKGRFTISRDNAKNTVYLQMNSLKPEDTAVYYCNADLSPTADDELDYRLVRDDYWGQGTQVTVSS	low polyreactivity
QVQLVESGGGLVHAGGSLSLSCAASGSIFGQYAMGWYRQAPGKERELVAAISYSTDARTYYADSVKGRFTISRDNAKNTVYLQMNSLKPEDTAVYYFNADSYFGYWGQGTQVTVSS	low polyreactivity
QVQLVESGGGLVHAGGSLSLSCAASGYTFPLYAMGRYRQAPGKERELVADNNIGGASTYYADSVKGRFTISRDNAKNTVYLQMNSLKPEDTAVYYCAKEDYDGYFPTFDYDYWGQGTQVTVSS	low polyreactivity
QVQLVESGGGLVHAGRSLRLSCAPSGSTFSIYDMGWSRQAPGKERELVAAISGSGSRTYYADSVKGRFTISRDNAKNTVYLQMNSLKPEDTALYYCAARGRHRDGFDFNYWGQGTQVTVSS	high polyreactivity
QVQLVESGGGLVHPGGRLRLSCAASGRIYKYYVMGWYRQAPGKEREFVAAISGRGGRTYYADSVKGRFTISRDNAKNTVYLQKNSLKPEDTAVYYCATERQDRGPLGYNYWGQGTQVTVSS	high polyreactivity
QVQLVESGGGLVHPGGSLRLSCAASGRTYAVDAMGWYRQAPGKERELVAAISRRGGSTSYADSEKGRFTISRDNAKNTVSLQMNSLKPEDTAVYYCNTDPGKFTPFDYWGQGTQVTVSS	high polyreactivity
QVQLVESGGGLVKAGGILRLSCAASGFNFSSYAMGWYIPAPGKERELVAAISGSGGTTYYADSVKGRFTISRDNAKNTVYLQLNSLKPEDTAVYYCATRLGLVITKYGYDYWGQGTQVTVSS	high polyreactivity
QVQLVESGGGLVKAGGSLLLSCAASGIIFRRNAMGRNIQAPGKERELVAAISSSKGRTYYADSVKGRFTISRDNAKNTVYLQMNSLKPEDTAVYYCTADYDASARGWGQIAYVYWGQGTQVTVSS	low polyreactivity
QVQLVESGGGLVKAGGSLRISCAASGFILGQYAMGWYRQAPGKERELVAAISRSSSTTYADSVKGRFTISRDKAKNTVYLQMNSLNPEDTAVYYCAAYYWYVTYFRREIAYEYWGQGTQVTVSS	low polyreactivity
QVQLVESGGGLVKAGGSLRITCAASGRIFGYYPMGWYRPATGKESELVAAITRRGGITYYADSVKGRFTISRDNAKNTVYLPMNCLKPADTAVYYRAADRYWGYDYWGQGTQVTGSS	high polyreactivity
QVQLVESGGGLVKAGGSLRLSCAASGFSFFGYAMGWYRQAPGKERELVAAIDNGGSTNYADSVKGRFTISRDNAKNTVYLQMNSLKPEDTAVYYCNTDVDYAILDYWGQGTQVTVSS	low polyreactivity
QVQLVESGGGLVKAGGSLRLSCAASGFTFWRNTMGWYRQAPGKERELVAAIDRSGSSTYYADSVKGRFTISRDNATNNVYFQMNSLKPEDTAVYYCAADHTYFTAYGDYWGQGTQVTVSS	low polyreactivity
